# Source: US20050113304
# T1: Buforin I
# T1 chain: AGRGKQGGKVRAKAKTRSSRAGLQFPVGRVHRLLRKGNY
# B1: Botulinum toxin B (protein)
# chain 1: PVTINNFNYNDPIDNNNIIMMEPPFARGTGRYYKAFKITDRIWIIPERYTFGYKPEDFNKSSGIFNRDVCEYYDPDYLNTNDKKNIFLQTMIKLFNRIKSKPLGEKLLEMIINGIPYLGDRRVPLEEFNTNIASVTVNKLISNPGEVERKKGIFANLIIFGPGPVLNENETIDIGIQNHFASREGFGGIMQMKFCPEYVSVFNNVQENKGASIFNRRGYFSDPALILMHELIHVLHGLYGIKVDDLPIVPNEKKFFMQSTDAIQAEELYTFGGQDPSIITPSTDKSIYDKVLQNFRGIVDRLNKVLVCISDPNININIYKNKFKDKYKFVEDSEGKYSIDVESFDKLYKSLMFGFTETNIAENYKIKTRASYFSDSLPPVKIKNLLDNEIYTIEEGFNISDKDMEKEYRGQNKAINKQAYEEISKEHLAVYKIQMCKSVK
# chain 2: APGICIDVDNEDLFFIADKNSFSDDLSKNERIEYNTQSNYIENDFPINELILDTDLISKIELPSENTESLTDFNVDVPVYEKQPAIKKIFTDENTIFQYLYSQTFPLDIRDISLTSSFDDALLFSNKVYSFFSMDYIKTANKVVEAGLFAGWVKQIVNDFVIEANKSNTMDKIADISLIVPYIGLALNVGNETAKGNFENAFEIAGASILLEFIPELLIPVVGAFLLESYIDNKNKIIKTIDNALTKRNEKWSDMYGLIVAQWLSTVNTQFYTIKEGMYKALNYQAQALEEIIKYRYNIYSEKEKSNINIDFNDINSKLNEGINQAIDNINNFINGCSVSYLMKKMIPLAVEKLLDFDNTLKKNLLNYIDENKLYLIGSAEYEKSKVNKYLKTIMPFDLSIYTNDTILIEMFNKYNSEILNNIILNLRYKDNNLIDLSGYGAKVEVYDGVELNDKNQFKLTSSANSKIRVTQNQNIIFNSVFLDFSVSFWIRIPKYKNDGIQNYIHNEYTIINCMKNNSGWKISIRGNRIIWTLIDINGKTKSVFFEYNIREDISEYINRWFFVTITNNLNNAKIYINGKLESNTDIKDIREVIANGEIIFKLDGDIDRTQFIWMKYFSIFNTELSQSNIEERYKIQSYSEYLKDFWGNPLMYNKEYYMFNAGNKNSYIKLKKDSPVGEILTRSKYNQNSKYINYRDLYIGEKFIIRRKSNSQSINDDIVRKEDYIYLDFFNLNQEWRVYTYKYFKKEEEKLFLAPISDSDEFYNTIQIKEYDEQPTYSCQLLFKKDEESTDEIGLIGIHRFYESGIVFEEYKDYFCISKWYLKEVKRKPYNLKLGCNWQFIPKDEGWTE
# Target: T1, Buforin I
protein,measurement,value
B1,substrate cleavage in the endopeptidase assay,B-I is not a substrate for BttxB
